B1: Erv1^CXXS (Erv1C33S) (enzyme, S. cerevisiae, UniProt P27882 1-189, looked up)
chain: MKAIDKMTDNPPQEGLSGRKIIYDEDGKPCRSSNTLLDFQYVTGKISNGLKNLSSNGKLAGTGALTGEASELMPGSRTYRKVDPPDVEQLGRSSWTLLHSVAASYPAQPTDQQKGEMKQFLNIFSHIYPCNWCAKDFEKYIRENAPQVESREELGRWMCEAHNKVNKKLRKPKFDCNFWEKRWKDGWDE
notes: Erv1, S. cerevisiae, full length, second shuttle cysteine changed to serine
B2: Erv1 (essential for respiration and viability 1), wild-type (enzyme, S. cerevisiae, UniProt P27882 1-189, looked up)
chain: B1 chain with S33C
notes: Erv1, FAD-dependent thiol oxidase of the mitochondrial intermembrane space, S. cerevisiae, full length; Construct in pET24a(+) via Nde1/Xho1; also called WT Erv1; WT
B3: Erv1 redox active-site disulfide double cysteine mutant (C130/C133S) (enzyme, S. cerevisiae, UniProt P27882 1-189, looked up)
chain: B1 chain with S33C, C130S, C133S
notes: Erv1, S. cerevisiae, full length, both active-site cysteines changed to serine; also called Erv1^CCSS
B4: Erv1^SXXC (Erv1C30S) (enzyme, S. cerevisiae, UniProt P27882 1-189, looked up)
chain: B1 chain with C30S, S33C
notes: Erv1, S. cerevisiae, full length, first shuttle cysteine changed to serine; Found as a tetramer (peak 1, yellow) and a dimer (peak 2, black, charge-transfer complex)
B5: Mia40^SPC, core domain Mia40c (amino acids 284-403) with the first cysteine of the CPC motif changed to serine (domain or fragment, S. cerevisiae, UniProt P36046 284-403, looked up)
chain: AYNPDTGEINWDSPCLGGMAHGPCGEEFKSAFSCFVYSEAEPKGIDCVEKFQHMQDCFRKYPEHYAEQLKETSDDEEPQDKVKVNTIESAPNVSSAKENAAKKAEQSDVKKEPLNEESKP
notes: Mia40, S. cerevisiae, core domain Mia40c, residues 284-403 (~15 kDa); first cysteine of the CPC motif (Cys296) changed to serine; source: purified (glutathione-Sepharose 4B, thrombin cleavage, Superdex 75)
B6: Mia40^CPS, core domain Mia40c (amino acids 284-403) with the second cysteine of the CPC motif changed to serine (domain or fragment, S. cerevisiae, UniProt P36046 284-403, looked up)
chain: B5 chain with S13C, C15S
notes: Mia40, S. cerevisiae, core domain Mia40c, residues 284-403 (~15 kDa); second cysteine of the CPC motif (Cys298) changed to serine; source: purified (glutathione-Sepharose 4B, thrombin cleavage, Superdex 75)

In one data set the target is Cys30 (UniProt position 30, EDGKPCRSSNT). In words: chemical modification (monobromobimane alkylation) with fluorescence detection. To be noted: 25°C; I = 0.15 M (constant ionic strength buffers, 120 mM NaCl); 15 mM acetic acid, 15 mM Mes and 30 mM Tris (pH 3.5–9.0), or 30 mM Aces, 15.6 mM Tris and 15.6 mM ethanolamine (pH 5.7–10). Both contained 120 mM NaCl and 0.1 mM DTPA.; Folded, FAD-bound. The single shuttle cysteine is reduced (free thiol, confirmed by AMS modification), and the active-site cysteines are replaced by serine.

Another data set concerns the target Cys33 (UniProt position 33, KPSRSCNTLLD). The description is as above. To be noted: 25°C; I = 0.15 M (constant ionic strength buffers, 120 mM NaCl); 15 mM acetic acid, 15 mM Mes and 30 mM Tris (pH 3.5–9.0), or 30 mM Aces, 15.6 mM Tris and 15.6 mM ethanolamine (pH 5.7–10). Both contained 120 mM NaCl and 0.1 mM DTPA.; Folded, FAD-bound. The single shuttle cysteine is reduced (free thiol, confirmed by AMS modification), and the active-site cysteines are replaced by serine.

Data set [1] deals with the molecule itself. In words: SEC; Superdex 75 in buffer A (50 mM Tris/HCl pH 7.4, 150 mM NaCl); elution position compared with the Erv1 tetramer.
Data set [2] deals with the molecule itself. Nature of the data set: non-reducing SDS/PAGE (intermolecular disulfide-bonded dimer); gel-filtration fractions of the purified proteins on Tris/Tricine SDS/PAGE (16% gel) under reducing and non-reducing conditions.
Data set [3] deals with the molecule itself. Nature of the data set: SEC-MALS; Superdex 200 10/30 in buffer A (150 mM NaCl, 50 mM Tris/HCl pH 7.4), in-line DAWN EOS photometer and Optilab rEX refractor; the two gel-filtration peaks of the protein.
The data set “Erv1^SXXC (Erv1C30S)” has as its target B4. Nature of the data set: mixed disulfide trapping, non-reducing SDS/PAGE and Western blot; single cysteine mutants pre-treated with 2 mM TCEP, exchanged to buffer A, incubated at 5 uM each for 20 min at room temperature (stopped with 2.5 mM AMS, or 1 mM DTT as reducing control), or 50 uM Mia40 and 5 uM Erv1 over 10 min (stopped with 20 mM IAM); detected with an antibody against Erv1. To be noted: both partners purified.

The data set “Erv1^CXXS (Erv1C33S)” deals with B1. The description is as above. To be noted: both partners purified.

Residue numbers refer to the chain shown, from its start. Numbers in names are those of the source. Where “and” joins values, the source holds several entries; their conditions need not be identical. Equal entries are not always repeated.

On to “Mitochondrial FAD-linked sulfhydryl (thiol) oxidase Erv1, triple mutant Erv1^CSSS (C33S/C130S/C133S) (Saccharomyces cerevisiae; C33S;C130S;C133S)”, for which, in the data set with Cys30, the pKa amounted to 8.39±0.12.

For “Mitochondrial FAD-linked sulfhydryl (thiol) oxidase Erv1, triple mutant Erv1^SCSS (C30S/C130S/C133S) (Saccharomyces cerevisiae; C30S;C130S;C133S)”, the pKa in the data set with Cys33 was 8.41±0.06.

Consider B1, for which the “stoichiometry N” value in data set [1] came to 4.

With B2, in data set [2], the binding result was “binds”.

Regarding B3, the binding result in data set [2] is “binds”.

As for B4, the “stoichiometry N” value in data set [3] is 4 and 2.

As to B5, the binding result with Erv1^SXXC (Erv1C30S) and with Erv1^CXXS (Erv1C33S) was “binds” throughout.

Turning to B6, the binding result with Erv1^SXXC (Erv1C30S) and with Erv1^CXXS (Erv1C33S) was “binds” throughout.

Source of the values: paper PMC4019985, “Mitochondrial thiol oxidase Erv1: both shuttle cysteine residues are required for its function with distinct roles” (Biochemical Journal, 2014).
